Experimental data reported in the supplement of paper PMC9732359.
± gives the uncertainty stated by the source.

Experiment: protein stability index of a GFP-peptide fusion (yeast GPS) (PSI 1-4); higher = more stable; sorted into four equal gates, so the index is relative within each strain
Procedure, shortened: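 Tiled 17-residue yeast protein peptides were fused downstream of GFP in a plasmid that also expresses Cherry, and the pooled library was carried in yeast. Mid-log cultures in leucine-free medium were sorted into four equal gates by GFP/Cherry fluorescence ratio, and plasmids from each gate were PCR-amplified and Illumina-sequenced, with reads assigned to strains by barcodes. The protein stability index for each peptide was each gate's read frequency times its gate number, summed.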

Sequence	protein stability index (doa10∆)	protein stability index (pdr5∆)	protein stability index (san1∆)	protein stability index (ubr1∆)
KQENSTLLKKANRDDVK [RPC82]	2.72 ± 0.085	2.51 ± 0.13	3.16 ± 0.22	3.12 ± 0.09
VVAKKDFNQAKHEEIDT [RPS10A]	3.51 ± 0.2	2.54 ± 0.19	3.22 ± 0.099	3.09 ± 0.081
AQWERSKLSQEFLYPHL [SNF12]	3.1 ± 0.088	3 ± 0.084	2.83 ± 0.071	3.08 ± 0.062
YTSIVQCCEFMTMLTPN [YML103C/NUP188]	2.13 ± 0.051	2.03 ± 0.05	1.95 ± 0.062	2 ± 0.044
NNRSVSMQTIAETIILS [SRB5]	2.02 ± 0.052	1.91 ± 0.068	1.56 ± 0.07	1.84 ± 0.031
TAGNWVASQTVKKVIEI [PRE2]	3.18 ± 0.12	3.35 ± 0.084	2.77 ± 0.069	3.23 ± 0.081
GLSLAGLAPDARVLSNY [PRE5]	1.23 ± 0.098	1.58 ± 0.1	1.27 ± 0.24	1.13 ± 0.1
EKITQISLLCKNFKGIE [PCI8]	2.41 ± 0.049	2.55 ± 0.039	2.7 ± 0.037	2.5 ± 0.035
NTLEEFEHGRTPAEMSR [FAS2]	2.8 ± 0.15	3.09 ± 0.16	3.19 ± 0.16	3.57 ± 0.15
TYGFSILDIVINNPVNL [FAS1]	2.07 ± 0.087	2.37 ± 0.075	2.53 ± 0.092	3.02 ± 0.074
LEKISSSNKDLEDEKMK [SMC4]	3.31 ± 0.079	3.15 ± 0.093	3.23 ± 0.038	3.26 ± 0.077
TMYMEVYTAIYNYCVNK [CDC53]	1.63 ± 0.047	1.55 ± 0.047	1.51 ± 0.061	1.7 ± 0.031
IQLSTVNRQSPLFFVDL [RGR1]	1.59 ± 0.08	1.69 ± 0.094	1.9 ± 0.12	1.76 ± 0.099
KRSFSSTLKSFFTNPNK [YOR098C/NUP1]	2.39 ± 0.039	2.31 ± 0.04	2.32 ± 0.052	2.28 ± 0.033
ESDNYRLLPNGSNKAQI [YML031W/NDC1]	3.08 ± 0.061	3.18 ± 0.067	2.78 ± 0.047	2.95 ± 0.035
TSALSELSGLISSAKLD [QCR2]	1.69 ± 0.1	2 ± 0.083	1.7 ± 0.13	1.94 ± 0.11
KPIYKDTRFGGRMDMTR [SSN2]	3.1 ± 0.17	3.36 ± 0.14	3.33 ± 0.068	3.4 ± 0.14
RLAPLIKEENDMENMAD [ARP7]	3.75 ± 0.23	3.65 ± 0.15	2.88 ± 0.14	
QNNSTGSSSIIYYDSYI [SSN2]	2.63 ± 0.095	2.8 ± 0.1	2.79 ± 0.056	2.81 ± 0.081
NPKYDTSNASMNTTLGS [YAR002W/NUP60]	3.12 ± 0.045	3.15 ± 0.044	3.12 ± 0.034	3.14 ± 0.047
ATAEKLPNIYPSTRCKL [RPT2]	2.14 ± 0.096	1.66 ± 0.091	2.04 ± 0.1	2 ± 0.1
GRDTTDYLKNIIVENSG [RPN2]	3.21 ± 0.13	2.83 ± 0.17	3.34 ± 0.12	3.4 ± 0.23
SRLLDILEDYCYFRDFE [ISW2]	1.71 ± 0.088	1.42 ± 0.089	1.5 ± 0.12	1.21 ± 0.058
QEESFSLNLGIGIVEIA [SRB8]	1.33 ± 0.11	1.79 ± 0.088	2.08 ± 0.29	1.89 ± 0.094
DANGVSLFELIVPIFQL [YJL039C/NUP192]	2.37 ± 0.053	2.08 ± 0.049	2.25 ± 0.062	2.14 ± 0.032
LAYENKITDKEDLLHYI [POP4]	3.35 ± 0.15	3.31 ± 0.068	3.2 ± 0.068	3.24 ± 0.088
MLLEEQLEYKRGEIREI [MED7]		2.92 ± 0.28	2.69 ± 0.29	

Sequence	protein stability index (doa10∆)	protein stability index (pdr5∆)	protein stability index (san1∆)	protein stability index (ubr1∆)
GCNNLIKNISNRVGLTL [ARP9]	3.28 ± 0.098	2.63 ± 0.066	3.33 ± 0.069	3.14 ± 0.057
TTTTTTTNNNNTNNNNT [SWI1]	3.18 ± 0.034	3.18 ± 0.05	3.303 ± 0.021	3.465 ± 0.024
PSLYRLLNILITYGIIK [SRB8]	1.37 ± 0.12	1.07 ± 0.12		1.04 ± 0.044
GNIVAELAQDPQTMEHY [YCS4]	2.9 ± 0.1	3.4 ± 0.17	3.44 ± 0.16	2.07 ± 0.11
SGVKNDILQSLSGGGHD [CDC53]	3.09 ± 0.075	3.09 ± 0.077	2.71 ± 0.068	2.8 ± 0.048
ISQLYSDAVMAEHSQNK [YJL041W/NSP1]	2.99 ± 0.079	2.83 ± 0.081	2.75 ± 0.096	2.81 ± 0.088
GYDDFQEEGSFEFGNMK [FAS2]	3.48 ± 0.14	3.26 ± 0.18	2.6 ± 0.28	3.33 ± 0.08
VLSPDSNIMSDSKKIKV [GAL11]	2.03 ± 0.13	2.42 ± 0.095	2.44 ± 0.12	2.21 ± 0.12
QSRLMSTSYHLNSTLES [MED6]	2.79 ± 0.072	2.79 ± 0.054	1.97 ± 0.063	2.37 ± 0.062
ARKETYSSYIYKVLKQT [HTB1]	2.89 ± 0.058	2.43 ± 0.048	1.97 ± 0.072	2.47 ± 0.037
PTFTFGSSALADNKEDV [YLR335W/NUP2]	3.13 ± 0.074	3.06 ± 0.049	3.06 ± 0.041	3.09 ± 0.033
CDEHMGLSLAGLAPDAR [PRE5]	2.79 ± 0.18	3.08 ± 0.15	2.56 ± 0.12	2.76 ± 0.093
KAISVGANTSAAQTLLQ [PRE9]	2.74 ± 0.054	2.92 ± 0.052	2.77 ± 0.053	2.92 ± 0.046
KPANASHAIRLGNGVAC [RGR1]	2.71 ± 0.06	3.06 ± 0.052	2.52 ± 0.058	3.01 ± 0.051
NNRWAENNYKKRLLGTA [RPS23A]	2.37 ± 0.27	2.78 ± 0.16		
GNILDFNLNLPPSSFGR [REC8]	3.04 ± 0.075	3.24 ± 0.15	3.03 ± 0.055	2.94 ± 0.1
LEKLIFDMTNHYNDSQQ [SRB8]	2.82 ± 0.053	2.23 ± 0.045	2.47 ± 0.065	2.51 ± 0.036
LTKYKEMERIVKNLTKY [SRP68]	2.96 ± 0.069	2.85 ± 0.073	2.82 ± 0.04	2.78 ± 0.041
VFESLEINNLIQLPASL [ARP9]	1.61 ± 0.08	1.88 ± 0.05	1.83 ± 0.077	1.6 ± 0.055
CYPQFAERDSQGGFYKQ [UBP6]	3.31 ± 0.065	3.28 ± 0.064	3.12 ± 0.058	3.21 ± 0.044
FLGEQVNEPTKNEEAEI [RPN1]				3.56 ± 0.26
ASRSQLEKGEIELSDGS [YJL039C/NUP192]	3.06 ± 0.081	3.02 ± 0.072	2.8 ± 0.07	3 ± 0.042
RKLINYTKKHLSSHSST [RPN4]	1.34 ± 0.063	1.71 ± 0.049	1.41 ± 0.088	1.28 ± 0.04
FELFDNKTAHLSIPGKS [SNU114]	2.11 ± 0.04	2.11 ± 0.055	2.25 ± 0.058	2.1 ± 0.031
IALSRRFLLNGRVKALE [YDL116W/NUP84]	1.25 ± 0.062	1.3 ± 0.058	1.19 ± 0.13	1.24 ± 0.035
RAYMRPLGVILTFVSVD [SCL1]	1.74 ± 0.049	1.81 ± 0.044	2.05 ± 0.083	2.16 ± 0.04
